B1: full-length GTP-bound Rab6a/Q72L with N-terminal GST tag [human] / BicD2-CTD (C-terminal cargo-binding domain of human Bicaudal D2, residues 715-804) [human] (parent)
chain 1: YENEKAMVTETMMKLRNELKALKEDAATFSSLRAMFATRCDEYITQLDEMQRQLAAAEDEKKTLNSLLRMAIQQKLALTQRLELLELDHE
chain 2: MSTGGDFGNPLRKFKLVFLGEQSVGKTSLITRFMYDSFDNTYQATIGIDFLSKTMYLEDRTVRLQLWDTAGLERFRSLIPSYIRDSTVAVVVYDITNVNSFQQTTKWIDDVRTERGSDVIIMLVGNKTDLADKRQVSIEEGERKAKELNVMFIETSAKAGYNVKQLFRRVAAALPGMESTQDRSREDMIDIKLEKPQEQPVSEGGCSC

Variants of: B1
Assay: GST pull-down, SDS-PAGE band quantification
Settings: with BicD2-CTD (C-terminal cargo-binding domain of human Bicaudal D2, residues 715-804) [human]; parent: 1; read off a plot

Row | Variant | ratio to parent
1 | chain 2 F38A | 0.01
2 | chain 2 T45A | 0.01
3 | chain 2 W67A | 0.09
4 | chain 2 S23A | 0.96

Results, then the variant that gave them:

Row | ratio to parent | Variant
5 | 0.97 | chain 2 Q22A
6 | 0.07 | chain 2 T69A
